Entries after “also recorded” stand apart in the source; their conditions may differ.
Key:
[1] = system: Axl signalling (phosphorylation of Akt on Ser473) in HeLa cells; experiment: Gas6-induced Axl downstream signalling, phospho-Akt (Ser473) Western blot; assay type: cell-based, human; details: pre-incubation 1 μg/mL 1 hr, then mouse Gas6 10 μg/mL 20 min
Procedure: The experiments were performed using human cervical cancer derived cell line HeLa (ATCC® CCL-2™). The cells were grown in T175 flasks to 80% confluency in MEM culture medium (Sigma) supplemented with 10% FBS, penicillin-streptomycin and L-glutamine. The cells were washed with PBS and detached by treatment with 0.25% Trypsin/EDTA (Sigma) followed by centrifugation and resuspension in fresh medium (MEM/0.5% FBS). The cells were seeded in Petri dishes (3×10^6 cells per dish) in MEM medium supplemented with 10% FBS. After three hrs incubation at 37° C., the cells were washed with PBS and kept in starvation medium (MEM/0.5% FBS) overnight. The cells were pre-incubated with anti-Axl antibody 10G5 at concentration 1 μg/mL for 1 hr followed by stimulation with Axl ligand, recombinant mouse Gas6 (R&D Systems), at concentration 10 μg/mL for 20 min. […] Detection with anti-GAPDH antibody (Millipore) was used as loading control.

MDA-MB-231 cells = experiment: Three-dimensional (3D) organotypic tumour mass model; assay type: cell-based, human
Procedure: A highly aggressive triple-negative human breast cancer cell line MDA-MB-231 (ATCC® HTB-26™) was cultured according to recommended conditions in Dulbecco's Modified Eagle's Medium/Nutrient Mixture F-12 Ham medium supplemented with 10% foetal bovine serum (FBS), glutamine and penicillin and streptomycin. The cells were pre-treated in suspension for at least 1 hour at 37° C., to ensure proper binding of antibodies on the cell surface before they were placed in extracellular matrix. The cells cultures were observed every day and fresh treatments were done every other day. The antibodies were used at concentrations 50-100 μg/mL. Imaging of coverslip 3D assay (35 mm dish) was done on a NIKON light microscopy using both Phase contrast and Hoffman optics. Already at day 3, difference in growth of cells treated with MAb10G5 and cells treated with a control irrelevant IgG was observed.
MDA-MB-231 cells were grown on extracellular matrix and allowed to form the highly aggressive stellate shaped morphology. Stellate-shaped tumour masses were then treated with the control IgG and antibody 10G5, as described in EXAMPLE 7.

Mer (rhMer-Fc chimera) = target: T1, Mer (rhMer-Fc chimera) (Homo sapiens, UniProt Q12866); experiment: Biacore binding analysis on immobilised human Mer; details: 10 μg/mL in HBS-EP, 25° C.
T1 construct: Soluble recombinant antigens corresponding to the extracellular domains of members of the human TAM receptor family; Fc; purchased R&D Systems 891-MR
T1 sequence (Q12866 21-505 limits assumed): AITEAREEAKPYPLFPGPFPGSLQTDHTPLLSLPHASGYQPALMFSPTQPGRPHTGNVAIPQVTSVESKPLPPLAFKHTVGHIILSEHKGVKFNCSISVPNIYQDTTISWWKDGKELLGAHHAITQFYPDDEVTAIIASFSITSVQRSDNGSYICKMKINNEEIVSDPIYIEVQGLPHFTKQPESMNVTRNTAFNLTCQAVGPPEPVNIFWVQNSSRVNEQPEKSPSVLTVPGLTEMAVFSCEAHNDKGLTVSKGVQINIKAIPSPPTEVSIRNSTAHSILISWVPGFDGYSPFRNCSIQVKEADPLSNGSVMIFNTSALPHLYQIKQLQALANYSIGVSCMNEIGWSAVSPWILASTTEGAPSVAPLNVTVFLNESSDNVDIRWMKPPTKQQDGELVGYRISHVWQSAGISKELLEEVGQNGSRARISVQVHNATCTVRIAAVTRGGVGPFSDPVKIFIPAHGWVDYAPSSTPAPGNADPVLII
Procedure: All binding experiments were performed using Biacore 3000 instrument (GE Healthcare) at 25° C. Soluble recombinant antigens corresponding to the extracellular domains of members of the human TAM receptor family, Axl (rhAxl-Fc chimera; R&D Systems, Cat. no. 154-AL), Mer (rhMer-Fc chimera; R&D Systems, Cat. no. 891-MR) and Tyro3 (rhTyro3/Dtk-Fc chimera; R&D Systems, Cat. no. 859-DK) were immobilized on the surface of CM5 sensor chip using amine coupling at the surface density of 393.0, 303.6 and 364.0 resonance units (RU), respectively. The Biacore run was performed in an automatic mode using Binding analysis wizard. Samples containing MAb 10G5 at concentration 10 μg/mL in HBS-EP buffer (GE Healthcare) were injected over the surfaces with immobilized antigens at flow rate of 30 μL/min for 3 min (association) followed by 5 min dissociation.

[2] = target: T2, mouse Axl (rmAxl-Fc chimera; Mm-Axl-Fc) (Mus musculus, UniProt Q00993); experiment: Biacore binding analysis on immobilised mouse Axl
T2 construct: The soluble recombinant antigens corresponding to human Axl (rhAxl-Fc chimera; R&D Systems, Cat. no; 154-AL), mouse Axl (rmAxl-Fc chimera; Fc; purchased R&D Systems 854-AX
T2 sequence (Q00993 19-445 limits assumed, change not shown): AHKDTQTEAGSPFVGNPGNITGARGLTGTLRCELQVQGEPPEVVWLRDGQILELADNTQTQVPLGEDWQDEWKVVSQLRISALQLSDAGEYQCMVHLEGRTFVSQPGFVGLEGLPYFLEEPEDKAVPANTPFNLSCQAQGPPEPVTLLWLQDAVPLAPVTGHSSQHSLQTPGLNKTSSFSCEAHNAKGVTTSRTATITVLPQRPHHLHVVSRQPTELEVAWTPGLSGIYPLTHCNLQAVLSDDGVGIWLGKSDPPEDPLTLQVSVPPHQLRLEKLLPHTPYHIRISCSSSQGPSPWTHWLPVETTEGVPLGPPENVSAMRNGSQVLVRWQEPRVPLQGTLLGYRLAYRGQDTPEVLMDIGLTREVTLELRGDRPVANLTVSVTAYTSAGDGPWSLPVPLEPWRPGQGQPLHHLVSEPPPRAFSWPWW
Procedure: The binding experiments were performed using Biacore 3000 instrument (GE Healthcare) at 25° C. The soluble recombinant antigens corresponding to human Axl (rhAxl-Fc chimera; R&D Systems, Cat. no. 154-AL), mouse Axl (rmAxl-Fc chimera; R&D Systems, R&D Systems; Cat. no. 854-AX) and human Tyro3 (rhTyro3/Dtk-Fc chimera; R&D Systems, Cat. no. 859-DK) were immobilized on the surface of CM5 sensor chip using amine coupling at the surface density of 1,308.0, 2,115.9 and 1,429.0 RU, respectively. The Biacore runs were performed in an automatic mode using Binding analysis wizard.
The sample containing MAb 10G5 or recombinant mouse (rm) Axl-ligand Gas6 (R&D Systems, Cat. no. 986-GS/CF) at concentration 10 μg/mL in HBS-EP buffer (GE Healthcare) was injected over the surfaces with immobilized antigens at flow rate of 30 μL/min for 3 min (association) followed by 5 min dissociation.
Sensor chip with immobilised Axl: Hs-Axl-Fc (638.2 RU), Mm-Axl-Fc (334.5 RU), Rhe-Axl-Fc (350.2 RU)
All tests were performed in parallel on Hs-Axl-Fc, Mm-Axl-Fc and Rhe-Axl-Fc surfaces.

A549 tumours = experiment: A549 human NSCLC xenograft in mice (Examples 14, 16, 17, 18); assay type: in vivo, mouse; details: nude mice, 20 mg/kg i.p. twice weekly, after four weeks of treatment, versus vehicle
From the text: SCID mice were implanted subcutaneously (s.c.) into the flank with 5×10^6 A549 cells resuspended in serum-free medium/Matrigel (1:1).

Molecule | Gas6-induced phosphorylation of Akt on Ser473 [1] | Effect on established stellate-shaped 3D tumour masses (MDA-MB-231 cells; 9-days old organoid masses treated 72 hours, versus control IgG) | Growth and tumour mass development in extracellular matrix (MDA-MB-231 cells; antibody 50-100 μg/mL, day 6, versus control IgG) | Binding to recombinant human Mer (Mer (rhMer-Fc chimera)) | Binding to mouse Axl [2] | Inhibition of A549 tumour growth (A549 tumours)
murine 10G5: mouse monoclonal anti-human Axl antibody from hybridoma WR-10G5-E5; VH SEQ ID NO: 28, VL SEQ ID NO: 29 (antibody, listed as Mus musculus, V domains shown, (1)..(118) Mus musculus 10G5 VH domain; (1)..(112) Mus musculus 10G5 VL domain) VH: QVQLQQSGAELVRPGASVKLSCKASGYSFTDFYINWVRQRPGQGLEWIARIFPGGDNTYYNEKFKGKATLTAEESSSTAYIQLSSLTSEDSAVYFCARRGLYYAMDYWGQGISVTVSS VL: DVLMTQTPLSLPVSLGDQASISCRSSQSLVHSNGIPYLHWYLQKPGQSPKLLIYRVSNRFSGVPDRFSGSGSGTDFTLKISRVEAEDLGVYFCSQGTHVPPTFGGGTKLEIK | significantly reduces; also recorded: significantly be reduced | caused degradation of stellate patterns | significantly inhibited growth and tumour mass development | no significant binding | no significant binding | 
c10G5: chimeric (mouse variable/human constant) IgG1 antibody with the 10G5 VH and VL (antibody, V domains shown) VH: QVQLQQSGAELVRPGASVKLSCKASGYSFTDFYINWVRQRPGQGLEWIARIFPGGDNTYYNEKFKGKATLTAEESSSTAYIQLSSLTSEDSAVYFCARRGLYYAMDYWGQGISVTVSS VL: DVLMTQTPLSLPVSLGDQASISCRSSQSLVHSNGIPYLHWYLQKPGQSPKLLIYRVSNRFSGVPDRFSGSGSGTDFTLKISRVEAEDLGVYFCSQGTHVPPTFGGGTKLEIK |  |  |  |  |  | around 40%

Reference: patent US11732048B2, “Anti-axl antagonistic antibodies” (BERGEN TEKNOLOGIOVERFØRING AS, priority 2016, dated 2023)
